# Laboratory results published in patent publication US20220288223.
# B1: Chymase (protein)
# chain: IIGGTECKPHSRPYMAYLEIVTSNGPSKFCGGFLIRRNFVLTAAHCAGRSITVTLGAHNITEEEDTWQKLEVIKQFRHPKYNTSTLHHDIMLLKLKEKASLTLAVGTLPFPSQFNFVPPGRMCRVAGWGRTGVLKPGSDTLQEVKLRLMDPQACSHFRDFDHNLQLCVGNPRKTKSAFKGDSGGPLLCAGVAQGIVSYGRSDAKPPAVFTRISHYRPWINQILQAN
# B2: MMP-2 (protein)
# chain: YNFFPRKPKWDKNQITYRIIGYTPDLDPETVDDAFARAFQVWSDVTPLRFSRIHDGEADIMINFGRWEHGDGYPFDGKDGLLAHAFAPGTGVGGDSHFDDDELWTLGEGQVVRVKYGNADGEYCKFPFLFNGKEYNSCTDTGRSDGFLWCSTTYNFEKDGKYGFCPHEALFTMGGNAEGQPCKFPFRFQGTSYDSCTTEGRTDGYRWCGTTEDYDRDKKYGFCPETAMSTVGGNSEGAPCVFPFTFLGNKYESCTSAGRSDGKMWCATTANYDDDRKWGFCPDQGYSLFLVAAHEFGHAMGLEHSQDPGALMAPIYTYTKNFRLSQDDIKGIQELYGASPDIDLGTGPTPTLGPVTPEICKQDIVFDGIAQIRGEIFFFKDRFIWRTVTPRDKPMGPLLVATFWPELPEKIDAVYEAPQEEKAVFFAGNEYWIYSASTLERGYPKPLTSLGLPPDVQRVDAAFNWSKNKKTYIFAGDKFWRYNEVKKKMDPGFPKLIADAWNAIPDNLDAVVDLQGGGHSYFFKGAYYLKLENQSLKSVKFGSIKSDWLGC
# B3: CathepsinK (protein)
# chain: APDSVDYRKKGYVTPVKNQGQCGSCWAFSSVGALEGQLKKKTGKLLNLSPQNLVDCVSENDGCGGGYMTNAFQYVQKNRGIDSEDAYPYVGQEESCMYNPTGKAAKCRGYREIPEGNEKALKRAVARVGPVSVAIDASLTSFQFYSKGVYYDESCNSDNLNHAVLAVGYGIQKGNKHWIIKNSWGENWGNKGYILMARNKNNACGIANLASFPKM
# B4: Plasmin (protein)
# chain: KVYLSECKTGNGKNYRGTMSKTKNGITCQKWSSTSPHRPRFSPATHPSEGLEENYCRNPDNDPQGPWCYTTDPEKRYDYCDILECEEECMHCSGENYDGKISKTMSGLECQAWDSQSPHAHGYIPSKFPNKNLKKNYCRNPDRELRPWCFTTDPNKRWELCDIPRCTTPPPSSGPTYQCLKGTGENYRGNVAVTVSGHTCQHWSAQTPHTHNRTPENFPCKNLDENYCRNPDGKRAPWCHTTNSQVRWEYCKIPSCDSSPVSTEQLAPTAPPELTPVVQDCYHGDGQSYRGTSSTTTTGKKCQSWSSMTPHRHQKTPENYPNAGLTMNYCRNPDADKGPWCFTTDPSVRWEYCNLKKCSGTEASVVAPPPVVLLPDVETPSEEDCMFGNGKGYRGKRATTVTGTPCQDWAAQEPHRHSIFTPETNPRAGLEKNYCRNPDGDVGGPWCYTTNPRKLYDYCDVPQCAAPSFDCGKPQVEPKKCPGRVVGGCVAHPHSWPWQVSLRTRFGMHFCGGTLISPEWVLTAAHCLEKSPRPSSYKVILGAHQEVNLEPHVQEIEVSRLFLEPTRKDIALLKLSSPAVITDKVIPACLPSPNYVVADRTECFITGWGETQGTFGAGLLKEAQLPVIENKVCNRYEFLNGRVQSTELCAGHLAGGTDSCQGDSGGPLVCFEKDKYILQGVTSWGLGCARPNKPGVYVRVSRFVTWIEGVMRNN
# B5: MMP-12 (protein)
# chain: GPVWRKHYITYRINNYTPDMNREDVDYAIRKAFQVWSNVTPLKFSKINTGMADILVVFARGAHGDFHAFDGKGGILAHAFGPGSGIGGDAHFDEDEFWTTHSGGTNLFLTAVHEIGHSLGLGHSSDPKAVMFPTYKYVDINTFRLSADDIRGIQSLYGDPKENQRLPNPDNSEPALCDPNLSFDAVTTVGNKIFFFKDRFFWLKVSERPKTSVNLISSLWPTLPSGIEAAYEIEARNQVFLFKDDKYWLISNLRPEPNYPKSIHSFGFPNFVKKIDAAVFNPRFYRTYFFVDNQYWRYDERRQMMDPGYPKLITKNFQGIGPKIDAVFYSKNKYYYFFQGSNQFEYDFLLQRITKTLKSNSWFGC
# Assays:
# [1] = biological target: RACPP with substrate TIAHLA
# [2] = biological target: RACPP with substrate SYPYKY
# [3] = biological target: RACPP with substrate GVAYSGA
# [4] = biological target: RACPP with substrate KLRFSQK
# [5] = biological target: RACPP with substrate TLSLEH
# [6] = biological target: RACPP with substrate YGRAAA
# [7] = biological target: RACPP with substrate PLGC(me)AG
# [8] = biological target: RACPP with substrate PLGLEEA
# [9] = biological target: RACPP with substrate RLQLK(Ac)L
# [10] = biological target: RACPP with substrate Nle-TPRSFL
# [11] = biological target: RACPP with substrate TGRAAA
Protein,Kcat/Km [1],Kcat/Km [2],Kcat/Km [3],Kcat/Km [4],Kcat/Km [5],Kcat/Km [6],Kcat/Km [7],Kcat/Km [8],Kcat/Km [9],Kcat/Km [10],Kcat/Km [11]
B1,11500,16400,48100,1970,2270,,,,,,
B2,16200,,,,11400,426,36400,2420,,,
B3,833,,1070,7440,497,,2640,787,2870,2350,
B4,,19400,,6510,,7720,,,,13000,4160
B5,2320,14000,,,1400,,9170,10500,,,
